From patent US20200148755A1
Positions count from the first letter of the chain named.

B1: 5E5WT scFv-Fc antibody (scFv, part only; not given: Linker, domain order, Fc, V domains shown, not shown: another chain or arm of the molecule; a dimerising Fc or GST; small tags and cut ends)
VH: QLQLVESGGGLVQPGGSLRLSCAASGFTFGTYSMRWVRQVPRKALEWVSSISTDGGGTAYRDSVKGRFTISRDNAKNTLYLQMNNLKPEDTAIYYCVIAGYSDWGQGTQVTVSS
VL: ATMLTQSPGSLSVVPGESASISCKTSQGLVHSDGKTYFYWFLQKPGQSPQQLIYQVSNRASGVPDRFTGSGSGTDFTLKISGVKAEDAGVYYCAQGTYYPHTFGSGTRLEIK
B2: 5E5VH5_VLWT scFv-Fc antibody (scFv, part only; not given: Linker, domain order, Fc, V domains shown, not shown: another chain or arm of the molecule; a dimerising Fc or GST; small tags and cut ends)
VH: B1 VH with S52H
VL: B1 VL
B3: 5E5VH12_VLWT scFv-Fc antibody (scFv, part only; not given: Linker, domain order, Fc, V domains shown, not shown: another chain or arm of the molecule; a dimerising Fc or GST; small tags and cut ends)
VH: B1 VH with A99H
VL: B1 VL
B4: 5E5VHWT_VL8 scFv-Fc antibody (scFv, part only; not given: Linker, domain order, Fc, V domains shown, not shown: another chain or arm of the molecule; a dimerising Fc or GST; small tags and cut ends)
VH: B1 VH
VL: B1 VL with Q95H

Target: biotinylated human ApoC3 (human) (UniProt P02656)
Assay: SPR, biotinylated human ApoC3 on streptavidin chip, scFv-Fc injected, pH 7.4

Sequence of UniProt P02656 (P02656 21-99): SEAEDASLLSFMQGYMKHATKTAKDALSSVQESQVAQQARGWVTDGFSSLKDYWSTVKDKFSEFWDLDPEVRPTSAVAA

**Q.** For B1, which Kd is on record?
**A.** 0.02 nM

**Q.** What about the koff of the same binder?
**A.** 1.75e-05 s⁻¹

**Q.** And the kon?
**A.** 823000 M⁻¹ s⁻¹

**Q.** How did the Kd turn out when B2 was run?
**A.** 0.59 nM

**Q.** And the koff?
**A.** 0.000105 s⁻¹

**Q.** What about the kon of the same binder?
**A.** 178000 M⁻¹ s⁻¹

**Q.** What does the source list for B3?
**A.** Kd: 0.51 nM; koff: 0.000157 s⁻¹; kon: 308000 M⁻¹ s⁻¹

**Q.** What does the source list for B4?
**A.** Kd: 0.58 nM; koff: 0.000221 s⁻¹; kon: 381000 M⁻¹ s⁻¹

Target: biotinylated human ApoC3 (human) (UniProt P02656)
Assay: SPR, biotinylated human ApoC3 on streptavidin chip, scFv-Fc injected, pH 5.5

**Q.** Which Kd does the source give for B1 here?
**A.** 0.06 nM

**Q.** What about the koff of the same binder?
**A.** 2.53e-05 s⁻¹

**Q.** What about the kon of the same binder?
**A.** 393000 M⁻¹ s⁻¹

**Q.** B2 was tested. Which Kd did it give?
**A.** 10.9 nM

**Q.** And the koff?
**A.** 0.0016 s⁻¹

**Q.** And the kon?
**A.** 147000 M⁻¹ s⁻¹

**Q.** Which results are given for B3?
**A.** Kd: 16 nM; koff: 0.00206 s⁻¹; kon: 129000 M⁻¹ s⁻¹

**Q.** What does the source list for B4?
**A.** Kd: 4.29 nM; koff: 0.00116 s⁻¹; kon: 269000 M⁻¹ s⁻¹

Target: biotinylated human ApoC3 (human) (UniProt P02656)
Assay: SPR, biotinylated human ApoC3 on streptavidin chip, scFv-Fc injected; ratio of KD at pH 5.5 to KD at pH 7.4

**Q.** Which KD pH 5.5/KD pH 7.4 does the source give for B1 here?
**A.** 3

**Q.** Which KD pH 5.5/KD pH 7.4 does the source give for B2 here?
**A.** 18.5

**Q.** How did the KD pH 5.5/KD pH 7.4 turn out when B3 was run?
**A.** 31.4

**Q.** Which KD pH 5.5/KD pH 7.4 does the source give for B4 here?
**A.** 7.4
